In patent US20180003720A1:

Biological target: γ-H2AX peptide standard (synthetic peptide …, serine at position 27 phosphorylated)
Test: sandwich chemiluminescent ELISA: plate-coated JBW301 captures the γ-H2AX peptide standard; detected with rabbit polyclonal anti-H2AX (Abcam) and goat anti-rabbit HRP

Chain of γ-H2AX peptide standard (synthetic peptide …, serine at position 27 phosphorylated) (peptide, as listed by the source): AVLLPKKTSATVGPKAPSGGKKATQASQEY

“Anti-γ-H2AX (Ser139) mouse monoclonal antibody, clone JBW301 (Millipore)” showed an Average RLU (n = 3) at 5 pM γH2AX standard of 993000 RLU, an Average RLU (n = 3) at 10 pM γH2AX standard of 2.02e+06 RLU and an Average RLU (n = 3) at 20 pM γH2AX standard of 4.6e+06 RLU. It also gave an Average RLU (n = 3) at 40 pM γH2AX standard of 1e+07 RLU, an Average RLU (n = 3) at 80 pM γH2AX standard of 2.08e+07 RLU and an Average RLU (n = 3) at 160 pM γH2AX standard of 3.74e+07 RLU. It also gave an Average RLU (n = 3) at 320 pM γH2AX standard of 5.88e+07 RLU and an Average RLU (n = 3) at 640 pM γH2AX standard of 7.92e+07 RLU.
